Experimental data published in article doi:10.1101/2021.10.20.465084 (bioRxiv, 2021).
Positions of bridges follow the written chain, without caps; N, C: chain ends. No end group written: not given here. *: point of attachment. Biotin = O=C1N[C@H]2[C@H](CS[C@H]2CCCCC(=O)*)N1; βAla = NCCC(=O)O

T1: Prefoldin from Pyrococcus horikoshii (PhPFD-α2β4 heterohexamer, 86.4 kDa) (Pyrococcus horikoshii, UniProt O58263 1-148; O58268 1-117, S98G)
T1 sequence 1: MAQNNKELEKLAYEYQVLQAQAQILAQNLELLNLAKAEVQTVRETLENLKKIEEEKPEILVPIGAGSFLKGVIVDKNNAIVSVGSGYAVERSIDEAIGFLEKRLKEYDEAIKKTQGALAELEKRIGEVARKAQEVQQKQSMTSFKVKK
T1 sequence 2: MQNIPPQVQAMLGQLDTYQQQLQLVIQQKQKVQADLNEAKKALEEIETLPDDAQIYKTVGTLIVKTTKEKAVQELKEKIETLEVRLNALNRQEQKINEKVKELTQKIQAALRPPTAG

B1: biotinylated IAPP (biotinyl-[β-Ala]-[β-Ala]-IAPP-NH2) (peptide)
peptide: {Biotin-βAla-βAla}-KCNTATCATQRLANFLVHSSNNFGAILSSTNVGSNTY-NH2
modifications: disulfide 2-7
SMILES: CC[C@H](C)[C@H](NC(=O)[C@H](C)NC(=O)CNC(=O)[C@H](Cc1ccccc1)NC(=O)[C@H](CC(N)=O)NC(=O)[C@H](CC(N)=O)NC(=O)[C@H](CO)NC(=O)[C@H](CO)NC(=O)[C@H](Cc1c[nH]cn1)NC(=O)[C@@H](NC(=O)[C@H](CC(C)C)NC(=O)[C@H](Cc1ccccc1)NC(=O)[C@H](CC(N)=O)NC(=O)[C@H](C)NC(=O)[C@H](CC(C)C)NC(=O)[C@H](CCCNC(=N)N)NC(=O)[C@H](CCC(N)=O)NC(=O)[C@@H](NC(=O)[C@H](C)NC(=O)[C@@H]1CSSC[C@H](NC(=O)[C@H](CCCCN)NC(=O)CCNC(=O)CCNC(=O)CCCC[C@@H]2SC[C@@H]3NC(=O)N[C@@H]32)C(=O)N[C@@H](CC(N)=O)C(=O)N[C@@H]([C@@H](C)O)C(=O)N[C@@H](C)C(=O)N[C@@H]([C@@H](C)O)C(=O)N1)[C@@H](C)O)C(C)C)C(=O)N[C@@H](CC(C)C)C(=O)N[C@@H](CO)C(=O)N[C@@H](CO)C(=O)N[C@H](C(=O)N[C@@H](CC(N)=O)C(=O)N[C@H](C(=O)NCC(=O)N[C@@H](CO)C(=O)N[C@@H](CC(N)=O)C(=O)N[C@H](C(=O)N[C@@H](Cc1ccc(O)cc1)C(N)=O)[C@@H](C)O)C(C)C)[C@@H](C)O

Assays:
[1] = molecular target: T1, Prefoldin from Pyrococcus horikoshii …; assay: NMR titration
[2] = molecular target: T1, Prefoldin from Pyrococcus horikoshii …; assay: BLI

Row | Binder | Kd [1] | koff [1] | Kd [2]
1 | KCNTATCATQRLANFLVHSSNNFGAILSSTNVGSNTY (ends and bridges not checked; also: uniformly [15N]-labelled) [U-[15N]-labelled human islet amyloid polypeptide (IAPP), recombinant, monomeric] | 61 µM | ~6000 s⁻¹ | –
2 | B1 | – | – | 16 ± 2.4 µM
